From article PMC4895691, “Suppressor of IKKɛ is an essential negative regulator of pathological cardiac hypertrophy” (Nature Communications, 2016)

Molecular target: T1, Flag-tagged TBK1 (TANK-binding kinase 1), human, full length (human, UniProt Q9UHD2 1-729)
T1 construct: entire coding region cloned into the EcoRI and XhoI sites of pSicoR-Flag-C1; also called Flag-TBK1; pSicoR-Flag-TBK1; source: HEK293T, transfected, in lysate (co-IP); immunopurified from HEK293T and eluted with FLAG peptide (GST pull-down)
T1 sequence (looked up): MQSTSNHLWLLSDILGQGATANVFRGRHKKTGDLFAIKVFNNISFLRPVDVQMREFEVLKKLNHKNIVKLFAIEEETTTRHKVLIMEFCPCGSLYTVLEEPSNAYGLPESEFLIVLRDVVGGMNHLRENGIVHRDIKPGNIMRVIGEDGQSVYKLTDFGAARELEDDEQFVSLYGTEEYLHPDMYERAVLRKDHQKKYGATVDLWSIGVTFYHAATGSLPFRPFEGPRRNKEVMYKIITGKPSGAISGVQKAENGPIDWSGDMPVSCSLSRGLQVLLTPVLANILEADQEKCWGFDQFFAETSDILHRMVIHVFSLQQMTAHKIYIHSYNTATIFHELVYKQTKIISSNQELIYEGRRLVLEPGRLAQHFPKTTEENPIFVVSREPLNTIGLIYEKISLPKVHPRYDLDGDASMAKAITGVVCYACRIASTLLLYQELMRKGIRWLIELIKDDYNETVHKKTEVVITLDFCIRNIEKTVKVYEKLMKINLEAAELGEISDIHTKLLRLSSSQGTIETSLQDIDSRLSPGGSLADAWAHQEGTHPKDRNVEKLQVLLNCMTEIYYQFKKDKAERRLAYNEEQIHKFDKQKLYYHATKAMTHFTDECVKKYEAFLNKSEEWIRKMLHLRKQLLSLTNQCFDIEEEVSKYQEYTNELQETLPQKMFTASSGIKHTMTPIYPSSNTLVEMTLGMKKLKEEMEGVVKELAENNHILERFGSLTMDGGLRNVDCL
Assay: pull-down; GST-SIKE from E. coli on glutathione-sepharose 4B beads incubated 4 h at 4 °C with immunopurified Flag-TBK1 from HEK293T; washed with IP lysis buffer, eluted with 20 mM reduced glutathione; anti-FLAG blot; GST tag as negative control
Conditions: both partners purified

B1: GST-SIKE fusion protein, human SIKE (natural protein, UniProt Q9BRV8 1-207, looked up)
chain: MSCTIEKILTDAKTLLERLREHDAAAESLVDQSAALHRRVAAMREAGTALPDQYQEDASDMKDMSKYKPHILLSQENTQIRDLQQENRELWISLEEHQDALELIMSKYRKQMLQLMVAKKAVDAEPVLKAHQSHSAEIESQIDRICEMGEVMRKAVQVDDDQFCKIQEKLAQLELENKELRELLSISSESLQARKENSMDTASQAIK
notes: Suppressor of IKKɛ (SIKE), human; human SIKE gene cloned into pGEX-4T-1; also called pGEX-4T-1-GST-SIKE; source: E. coli Rosetta (DE3), purified on glutathione-sepharose 4B beads
  binding result: binds
